Here are results for two substances from publication PMC10960872.

For test [1], the target named is NanoBiT Gq: Gαq–LgBiT (wild type) co-expressed with Gβ1 and Gγ2, P50148;P62873;P59768. Kind of test: NanoBiT assay (M3-SmBiT with Gαq–LgBiT, Gβ1, Gγ2), basal. Particulars: absence of agonist; parent: est. 78 (WT 1:4, expression-matched; WT 1:1 = 100); read off a plot.
The target is the same in test [2]. Kind of test: NanoBiT assay (M3-SmBiT with Gαq–LgBiT, Gβ1, Gγ2), ACh titration. The conditions noted are these: titrated concentrations of acetylcholine; parent: est. -0.1 (WT 1:4, expression-matched; WT 1:1 = 0); read off a plot.

For “ssHA-FLAG-M3-SmBiT (wild type), P20309 M3-6A (C-tail KKKRRK to AAAAAA)”, the percent of parent in test [1] came to 46 %RLU. The other: ΔpEC50 in test [2] is -0.2.

Take “ssHA-FLAG-M3-SmBiT (wild type), P20309 M3-GS (C-tail KKKRRK to GSGSGS)”: the percent of parent in test [1] turned out to be 50 %RLU. The other: ΔpEC50 in test [2] is -0.3.
